Residue numbers refer to the chain shown, from its start. Read-outs that look alike come from different tables or passages of the source.
Assays:
Assay in all cases: fluorescence anisotropy
[1] = target: T1, rGyr_fl Y851F (full-length reverse gyrase) (Thermotoga maritima, UniProt O51934 1-1104, Y851F)
T1 sequence: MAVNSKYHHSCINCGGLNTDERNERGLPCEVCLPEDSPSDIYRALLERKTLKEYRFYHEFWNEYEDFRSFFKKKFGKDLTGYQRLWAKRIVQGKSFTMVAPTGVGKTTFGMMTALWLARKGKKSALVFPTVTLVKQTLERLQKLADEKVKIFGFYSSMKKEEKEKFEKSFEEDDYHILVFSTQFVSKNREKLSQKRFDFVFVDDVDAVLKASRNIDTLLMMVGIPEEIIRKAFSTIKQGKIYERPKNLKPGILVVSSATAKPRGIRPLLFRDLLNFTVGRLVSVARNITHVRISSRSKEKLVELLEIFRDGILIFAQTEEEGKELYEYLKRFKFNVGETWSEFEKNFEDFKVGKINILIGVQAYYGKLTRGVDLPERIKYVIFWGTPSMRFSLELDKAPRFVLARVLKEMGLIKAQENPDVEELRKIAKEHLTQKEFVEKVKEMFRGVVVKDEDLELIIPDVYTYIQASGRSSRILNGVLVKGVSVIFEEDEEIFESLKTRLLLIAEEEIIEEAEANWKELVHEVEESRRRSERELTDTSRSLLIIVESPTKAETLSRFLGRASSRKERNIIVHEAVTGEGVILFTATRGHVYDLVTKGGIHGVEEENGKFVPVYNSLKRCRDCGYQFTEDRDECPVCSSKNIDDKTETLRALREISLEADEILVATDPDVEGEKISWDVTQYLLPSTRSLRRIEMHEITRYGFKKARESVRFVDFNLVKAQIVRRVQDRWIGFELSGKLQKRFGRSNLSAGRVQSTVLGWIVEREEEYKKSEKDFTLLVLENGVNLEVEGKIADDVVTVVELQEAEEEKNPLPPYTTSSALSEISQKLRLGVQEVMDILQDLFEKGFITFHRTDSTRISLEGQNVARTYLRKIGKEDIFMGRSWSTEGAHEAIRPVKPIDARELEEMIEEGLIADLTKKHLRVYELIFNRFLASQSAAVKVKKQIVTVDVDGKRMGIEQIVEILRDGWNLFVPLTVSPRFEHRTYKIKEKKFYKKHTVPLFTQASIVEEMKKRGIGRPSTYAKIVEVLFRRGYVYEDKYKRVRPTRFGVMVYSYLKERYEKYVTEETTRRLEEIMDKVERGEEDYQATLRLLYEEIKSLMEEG

rGyr_hel K106Q = target: T2, rGyr_hel K106Q (Thermotoga maritima, UniProt O51934 59-541, K106Q)
T2 sequence: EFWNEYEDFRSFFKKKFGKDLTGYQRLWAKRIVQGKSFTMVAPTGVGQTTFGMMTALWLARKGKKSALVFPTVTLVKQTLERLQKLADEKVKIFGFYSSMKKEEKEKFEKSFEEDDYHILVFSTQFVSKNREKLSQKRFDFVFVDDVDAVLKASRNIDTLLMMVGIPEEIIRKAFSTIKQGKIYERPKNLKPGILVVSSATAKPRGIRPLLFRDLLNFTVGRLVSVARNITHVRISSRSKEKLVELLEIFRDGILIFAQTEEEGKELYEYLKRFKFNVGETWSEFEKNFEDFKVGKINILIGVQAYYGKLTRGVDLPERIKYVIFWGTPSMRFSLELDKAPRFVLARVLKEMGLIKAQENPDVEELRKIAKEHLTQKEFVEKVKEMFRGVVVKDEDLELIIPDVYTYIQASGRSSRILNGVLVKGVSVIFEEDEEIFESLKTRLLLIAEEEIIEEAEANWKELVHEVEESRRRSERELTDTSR

[2] = target: T1, rGyr_fl Y851F (full-length reverse …); remark: listed apart in the source
[3] = target: T3, rGyr_hel (reverse gyrase helicase-like domain) (Thermotoga maritima, UniProt O51934 59-541)
T3 sequence: T2 sequence with Q48K

[4] = target: T3, rGyr_hel (reverse gyrase helicase-like …); remark: listed apart in the source
[5] = target: T1, rGyr_fl Y851F (full-length reverse …); remark: listed apart in the source

B1: 60-base ssDNA (ssDNA)
DNA: AAGCCAAGCTTCTAGAGTCAGCCCGTGATATTCATTACTTCTTATCCTAGGATCCCCGTT
Work on B1 yielded a Kd [1] of 60 ± 15 nM, a Kd (rGyr_hel K106Q) of 180 ± 30 nM and a Kd [2] of 35 ± 5 nM. The Kd [3] was 200 ± 30 nM, the Kd [4] was 1200 ± 200 nM and the Kd [5] was 41 ± 9 nM.

B2: 60 bp dsDNA (dsDNA)
DNA 1: B1 DNA
DNA 2: AACGGGGATCCTAGGATAAGAAGTAATGAATATCACGGGCTGACTCTAGAAGCTTGGCTT
B2 gave a Kd [1] of 250 ± 40 nM, a Kd (rGyr_hel K106Q) of 3800 ± 600 nM and a Kd [2] of 490 ± 60 nM. For the same binder, the Kd [3] was 3900 ± 600 nM, the Kd [4] was 1000 ± 100 nM and the Kd [5] was 330 ± 70 nM.
